Article PMC2827695 (Journal of the American Society for Mass Spectrometry, 2009)

Molecular target: T1, IFNAR1 (UniProt P17181 28-436)
T1 sequence (looked up): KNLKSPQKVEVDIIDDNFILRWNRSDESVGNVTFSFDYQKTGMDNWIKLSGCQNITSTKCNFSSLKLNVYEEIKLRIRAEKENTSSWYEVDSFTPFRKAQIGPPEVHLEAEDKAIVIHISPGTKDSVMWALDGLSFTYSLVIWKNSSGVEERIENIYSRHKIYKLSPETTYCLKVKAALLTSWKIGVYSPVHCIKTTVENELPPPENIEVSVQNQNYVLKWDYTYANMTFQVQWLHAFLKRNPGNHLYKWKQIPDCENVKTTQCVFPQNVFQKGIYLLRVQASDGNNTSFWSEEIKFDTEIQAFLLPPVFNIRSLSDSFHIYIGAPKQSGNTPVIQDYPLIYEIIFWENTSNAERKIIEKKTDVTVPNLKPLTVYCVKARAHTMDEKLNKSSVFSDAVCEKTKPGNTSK
Assay: native MS

B1: Interferon-β1a (ligand, UniProt P01574 22-187, looked up)
chain: MSYNLLGFLQRSSNFQCQKLLWQLNGRLEYCLKDRMNFDIPEEIKQLQQFQKEDAALTIYEMLQNIFAIFRQDSSSTGWNETIVENLLANVYHQINHLKTVLEEKLEKEDFTRGKLMSSLHLKRYYGRILHYLKAKEYSHCAWTIVRVEILRNFYFINRLTGYLRN
modifications: glycoprotein with a carbohydrate chain, several glycoforms (glycosylation site printed as Asn-90)
- stoichiometry N: 1
